Assay results: patent US20140004122A1 (published 2014)

Columns and labels:
[1] = target: T1, cynomolgus monkey PCSK9, V5- and 6xHis-tagged (cynomolgus monkey, UniProt A0A7N9D9N8 150-747); assay: BIAcore SPR; antibody amine-coupled to CM5 chip, PCSK9 injected as analyte; pH 7.4
T1 construct: also called cPCSK9-V5-6xHIS; cPCSK9; not shown: V5 tag and 6xHis tag

[2] = target: T1, cynomolgus monkey PCSK9, V5- and …; assay: KinExA solution equilibrium; free antibody captured on PCSK9-coated beads; cPCSK9 concentration adjusted to 50% active
From the text: (§1) Equilibrium dissociation constant (KD) were obtained from nonlinear regression of the two sets of competition curves using a one-site homogeneous binding model. The KinExA® Pro software was employed in the analysis.

[3] = target: T1, cynomolgus monkey PCSK9, V5- and …; assay: BIAcore solution equilibrium; PCSK9 mixed with 21B12.1, free PCSK9 measured on immobilised 21B12
[4] = target: T1, cynomolgus monkey PCSK9, V5- and …; assay: KinExA solution equilibrium; free antibody captured on PCSK9-coated beads; cPCSK9 concentration adjusted to 50% active; remark: listed apart in the source
From the text: as §1

[5] = target: T2, PCSK1 (R&D Systems) (UniProt P29120 111-753, limits assumed); assay: competition ELISA: 11F1 (0.4 µg/mL) pre-incubated with soluble convertase, then binding to plate-captured biotinylated PCSK9
T2 sequence (looked up): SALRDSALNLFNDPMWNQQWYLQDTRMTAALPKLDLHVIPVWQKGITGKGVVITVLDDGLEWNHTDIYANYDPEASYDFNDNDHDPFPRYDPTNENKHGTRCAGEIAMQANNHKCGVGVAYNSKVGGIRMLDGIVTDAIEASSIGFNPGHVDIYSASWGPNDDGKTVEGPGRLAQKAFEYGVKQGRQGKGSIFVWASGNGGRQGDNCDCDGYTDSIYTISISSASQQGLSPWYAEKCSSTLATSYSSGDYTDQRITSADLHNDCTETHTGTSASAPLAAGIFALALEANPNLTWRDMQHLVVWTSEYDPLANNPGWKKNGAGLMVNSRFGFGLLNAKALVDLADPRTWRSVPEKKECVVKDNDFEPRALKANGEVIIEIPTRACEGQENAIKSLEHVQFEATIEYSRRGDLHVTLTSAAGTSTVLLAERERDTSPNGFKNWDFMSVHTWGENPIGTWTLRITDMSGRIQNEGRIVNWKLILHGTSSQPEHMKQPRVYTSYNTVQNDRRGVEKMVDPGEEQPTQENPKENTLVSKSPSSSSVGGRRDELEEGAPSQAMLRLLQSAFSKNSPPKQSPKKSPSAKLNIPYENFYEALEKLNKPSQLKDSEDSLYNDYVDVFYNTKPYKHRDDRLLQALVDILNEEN

[6] = target: T3, PCSK7 (R&D Systems) (UniProt Q16549 142-667, limits assumed); assay: as above
T3 sequence (looked up): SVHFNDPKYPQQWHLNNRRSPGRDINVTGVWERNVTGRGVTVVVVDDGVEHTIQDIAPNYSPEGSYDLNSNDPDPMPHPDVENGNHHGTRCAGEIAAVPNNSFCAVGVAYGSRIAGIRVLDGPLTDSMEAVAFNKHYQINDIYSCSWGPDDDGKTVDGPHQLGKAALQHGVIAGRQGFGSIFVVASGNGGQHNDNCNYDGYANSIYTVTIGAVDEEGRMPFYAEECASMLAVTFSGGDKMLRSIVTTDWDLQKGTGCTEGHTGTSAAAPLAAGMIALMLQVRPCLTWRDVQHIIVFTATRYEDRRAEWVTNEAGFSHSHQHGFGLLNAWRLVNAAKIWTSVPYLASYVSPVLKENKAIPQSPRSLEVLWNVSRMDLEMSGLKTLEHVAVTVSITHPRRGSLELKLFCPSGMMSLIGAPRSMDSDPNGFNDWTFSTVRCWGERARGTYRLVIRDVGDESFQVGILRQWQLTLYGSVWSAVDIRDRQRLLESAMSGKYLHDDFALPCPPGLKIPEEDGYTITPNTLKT

B1: 31H4 anti-PCSK9 human IgG4 antibody (from hybridoma) (antibody, V domains shown)
VH: EVQLVESGGGLVKPGGSLRLSCAASGFTFSSYSMNWVRQAPGKGLEWVSSISSSSSYISYADSVKGRFTISRDNAKNSLYLQMNSLRAEDTAVYFCARDYDFWSAYYDAFDVWGQGTMVTVSS
VL: QSVLTQPPSVSGAPGQRVTISCTGSSSNIGAGYDVHWYQQLPGTAPKLLISGNSNRPSGVPDRFSGSKSGTSASLAITGLQAEDEADYYCQSYDSSLSGSVFGGGTKLTVLQ
notes: also called 31H4.1; 31H4 IgG4
Kd [1]: 190 pM
Kd [2]: 2 pM

B2: 21B12 anti-PCSK9 human IgG4 antibody (from hybridoma) (antibody, V domains shown)
VH: QVQLVQSGAEVKKPGASVKVSCKASGYTLTSYGISWVRQAPGQGLEWMGWVSFYNGNTNYAQKLQGRGTMTTDPSTSTAYMELRSLRSDDTAVYYCARGYGMDVWGQGTTVTVSS
VL: QSALTQPASVSGSPGQSITISCTGTSSDVGGYNSVSWYQQHPGKAPKLMIYEVSNRPSGVSNRFSGSKSGNTASLTISGLQAEDEADYYCNSYTSTSMVFGGGTKLTVLQ
notes: also called 21B12.1; 21B12 IgG4
Kd [1]: 360 pM
Kd [3]: 11 pM

B3: 16F12 anti-PCSK9 human IgG4 antibody (antibody, V domains shown)
VH: QVHLVESGGGVVQPGRSLRLSCAASGFTFNSFGMHWVRQAPGKGLEWVALIWSDGSDEYYADSVKGRFTISRDNSKNTLYLQMNSLRAEDTAVYYCARAIAALYYYYGMDVWGQGTTVTVSS
VL: QSVLTQPPSVSAAPGQKVTISCSGSSSNIGNNFVSWYQQLPGTAPKLLIYDYNKRPSGIPDRFSGSKSGTSATLGITGLQTGDEADYYCGTWDSSLSAYVFGTGTRVTVLQ
notes: also called 16F12.1; 16F12, anti-PCSK9 huIgG4
Kd [1]: 870 pM
Kd [4]: 16 pM

B4: 11F1 anti-PCSK9 antibody (antibody, V domains shown)
VH: EVQLVESGGGLVQPGGSLRLSCAASGFTFSNYWMSWVRQAPGKGLEWVASIKQDGSEKYYVDSVKGRFAISRDNAKNSLFLQMNSLRAEDTAVYYCARDLVLMVYDIDYYYYGMDVWGQGTTVTVSS
VL: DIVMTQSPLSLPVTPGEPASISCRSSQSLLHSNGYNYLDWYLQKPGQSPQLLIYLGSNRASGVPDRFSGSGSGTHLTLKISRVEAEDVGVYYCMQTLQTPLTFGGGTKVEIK
notes: It was detected with anti-human Fc, so it is a whole human antibody
binding result [5]: no binding (tested: 0 to 20 µg/mL)
binding result [6]: no binding (tested: 0 to 20 µg/mL)
